Reference: article doi:10.1101/2024.06.05.597462 (bioRxiv, 2024)
Where two headings read alike, the source gives them in different places. Blank lines part the entries; values can stand above or below the molecule they belong to.

Tests used:
Test in all cases: fluorescence correlation spectroscopy
Arc NTD-linker-SNAP = target: Arc NTD-linker-SNAP
[1] = target: the molecule itself
[2] = target: the molecule itself; remark: listed apart in the source

stoichiometry N (Arc NTD-linker-SNAP): 4
Molecule: Arc NTD-linker-SNAP (domain or fragment)

B1: Arc-FL-C-EGFP (natural protein)
chain: MELDHMTTGGLHAYPAPRGGPAAKPNVILQIGKCRAEMLEHVRRTHRHLLTEVSKQVERELKGLHRSVGKLENNLDGYVPTGDSQRWKKSIKACLCRCQETIANLERWVKREMHVWREVFYRLERWADRLESMGGKYPVGSEPARHTVSVGVGGPEPYCQEADGYDYTVSPYAITPPPAAGELPEQESVGAQQYQSWVPGEDGQPSPGVDTQIFEDPREFLSHLEEYLRQVGGSEEYWLSQIQNHMNGPAKKWWEFKQGSVKNWVEFKKEFLQYSEGTLSREAIQRELDLPQKQGEPLDQFLWRKRDLYQTLYVDAEEEEIIQYVVGTLQPKFKRFLRHPLPKTLEQLIQRGMEVQDGLEQAAEPSVTPLPTEDETEALTPALTSESVASDRTQPE
stoichiometry N [1]: 627
stoichiometry N [2]: 4.3
